Values belong to the molecule of their own block, whether it stands above or below them.
Key:
[1] = target: thyroid stimulating hormone receptor (TSHR), full length human TSHR (human) (UniProt P16473); test: TSH-biotin competition ELISA, TSHR coated wells; negative control, 100 µg/mL in HBD serum
[2] = target: TSHR (thyroid stimulating hormone receptor), full length human (human) (UniProt P16473); test: negative control; competitor ^125I-K1-70 IgG, TSHR coated tubes; 0.1 µg/mL in assay buffer
[3] = target: TSHR (thyroid stimulating hormone receptor), full length human (human) (UniProt P16473); test: negative control; competitor ^125I-K1-70 IgG, TSHR coated tubes; 0.01 µg/mL in assay buffer
[4] = target: human thyroid stimulating hormone receptor (TSHR), full length (human) (UniProt P16473); test: 125I-K1-70 Fab (competitor) binding to TSHR coated tubes; negative control MAb 1 µg/mL in HBD serum
[5] = target: human TSH receptor (full length) coated on ELISA plate wells (human) (UniProt P16473); test: TSH-biotin binding inhibition ELISA, TSHR coated wells; 1 µg/mL in assay buffer; negative control MAb
[6] = target: TSH receptor (TSHR) coated on tubes (human) (UniProt P16473); test: inhibition of 125I-K1-70 IgG binding to TSHR coated tubes; negative control 0.01 µg/mL in assay buffer
[7] = target: human TSH receptor (full length) coated on ELISA plate wells (human) (UniProt P16473); test: TSH-biotin binding inhibition ELISA, TSHR coated wells; 100 µg/mL in assay buffer; negative control MAb
[8] = target: TSHR (full length) coated on tubes (human) (UniProt P16473); test: inhibition of 125I-K1-18 Fab (competitor) binding to TSHR coated tubes; negative control 10 µg/mL in assay buffer
[9] = target: human TSH receptor (full length) coated on ELISA plate wells (human) (UniProt P16473); test: TSH-biotin binding inhibition ELISA, TSHR coated wells; 1 µg/mL in assay buffer + 100 µg/mL 5B3 IgG; negative control MAb
[10] = target: TSH receptor (TSHR) coated on tubes (human) (UniProt P16473); test: inhibition of 125I-K1-70 IgG binding to TSHR coated tubes; negative control 1 µg/mL in HBD serum pool; duplicate determination
[11] = target: TSH receptor (TSHR), full length human, coated on tubes (human) (UniProt P16473); test: inhibition of 125I-K1-18 IgG binding to TSHR coated tubes; competitor 125I-K1-18 IgG; negative control sample at 0.1 µg/mL in HBD serum
[12] = target: TSHR (thyroid stimulating hormone receptor), full length human (human) (UniProt P16473); test: competitor ^125I-K1-70 IgG, TSHR coated tubes; 100 µg/mL in assay buffer
[13] = target: TSHR (full length) coated on tubes (human) (UniProt P16473); test: inhibition of 125I-K1-18 Fab (competitor) binding to TSHR coated tubes; test sample 100 µg/mL in HBD serum
[14] = target: TSH receptor (TSHR), full length human, coated on tubes (human) (UniProt P16473); test: inhibition of 125I-K1-18 IgG binding to TSHR coated tubes; competitor 125I-K1-18 IgG; sample at 1 µg/mL in HBD serum
[15] = target: TSH receptor (full length human TSHR) (human) (UniProt P16473); test: competition ELISA: inhibition of M22 Fab-peroxidase (competitor) binding to TSHR coated wells; test sample at 1 µg/mL diluted in HBD serum pool
[16] = target: TSH receptor (full length human TSHR) (human) (UniProt P16473); test: competition ELISA: inhibition of M22 Fab-peroxidase (competitor) binding to TSHR coated wells; test sample at 0.01 µg/mL diluted in assay buffer
[17] = target: TSHR with Lys129 mutated to Ala, expressed in CHO cells (human) (UniProt P16473); test: cell-based or functional assay
[18] = target: wild type TSHR (human TSH receptor) expressed in CHO cells (human) (UniProt P16473); test: cell-based or functional assay
[19] = target: human thyroid stimulating hormone receptor (TSHR), full length (human) (UniProt P16473); test: 125I-K1-18 Fab competition, TSHR coated tubes; 10 µg/mL in HBD
[20] = target: human thyroid stimulating hormone receptor (TSHR), full length (human) (UniProt P16473); test: 125I-K1-18 Fab competition, TSHR coated tubes; 0.1 µg/mL in HBD
[21] = target: TSH receptor (TSHR), full length human, coated on tubes (human) (UniProt P16473); test: inhibition of 125I-TSH binding to TSHR coated tubes; 1 µg/mL, diluted in assay buffer
[22] = target: TSH receptor (TSHR), full length human, coated on tubes (human) (UniProt P16473); test: inhibition of 125I-TSH binding to TSHR coated tubes; 0.01 µg/mL, diluted in HBD serum pool
[23] = target: TSH receptor (TSHR) coated on tubes (human) (UniProt P16473); test: inhibition of 125I-K1-70 IgG binding to TSHR coated tubes; sample 0.01 µg/mL in HBD serum pool
[24] = target: thyroid stimulating hormone receptor (full length human TSHR) (human) (UniProt P16473); test: ELISA: inhibition of M22 Fab-peroxidase (competitor) binding to TSHR coated wells; 0.01 µg/mL, diluted in assay buffer
[25] = target: thyroid stimulating hormone receptor (full length human TSHR) (human) (UniProt P16473); test: ELISA: inhibition of M22 Fab-peroxidase (competitor) binding to TSHR coated wells; 0.1 µg/mL, diluted in HBD serum pool

Molecule: 5B3 IgG (antibody)
Inhibition of binding (%) [1]: -2.3%
Inhibition of binding (%) [2]: -1.2%
Inhibition of binding (%) [3]: -3.6%
Inhibition of binding (%) [4]: -7.8%
% inhibition of TSH-biotin binding [5]: -1%
Inhibition of binding (%) [6]: 3.2%
% inhibition of TSH-biotin binding [7]: 8.3%
Inhibition of binding (%) [8]: 0.6%
% inhibition of TSH-biotin binding [9]: -4.8%
Inhibition of binding (%) [10]: 0%
Inhibition of binding (%) [11]: -7.8%

Molecule: 9D33 IgG (antibody)
Inhibition of binding (%) [12]: 61.4%
Inhibition of binding (%) [13]: 77.3%
Inhibition of binding (%) [14]: 62.1%
Inhibition of binding (%) [15]: 57.8%
Inhibition of binding (%) [16]: 14.8%

Second part, the molecule after the results:

Cyclic AMP produced, mutated TSHR, TSH 0.01 ng/mL [17]: 2.69 pmol/mL
Cyclic AMP produced, mutated TSHR, TSH 0.03 ng/mL [17]: 5.34 pmol/mL
Cyclic AMP produced, mutated TSHR, TSH 0.1 ng/mL [17]: 12.7 pmol/mL
Cyclic AMP produced, mutated TSHR, TSH 0.3 ng/mL [17]: 29 pmol/mL
Cyclic AMP produced, mutated TSHR, TSH 1 ng/mL [17]: 40.8 pmol/mL
Cyclic AMP produced, mutated TSHR, TSH 3 ng/mL [17]: 48.5 pmol/mL
Mutated/Wild type (%) of cyclic AMP produced, TSH 0.01 ng/mL [17]: 134%
Mutated/Wild type (%) of cyclic AMP produced, TSH 0.03 ng/mL [17]: 161%
Mutated/Wild type (%) of cyclic AMP produced, TSH 0.1 ng/mL [17]: 131%
Mutated/Wild type (%) of cyclic AMP produced, TSH 0.3 ng/mL [17]: 111%
Mutated/Wild type (%) of cyclic AMP produced, TSH 1 ng/mL [17]: 88%
Mutated/wild type (%) of cyclic AMP produced; TSH 3 ng/mL [17]: 101%
Cyclic AMP produced, wild type TSHR, TSH 0.01 ng/mL [18]: 2.01 pmol/mL
Cyclic AMP produced, wild type TSHR, TSH 0.03 ng/mL [18]: 3.32 pmol/mL
Cyclic AMP produced, wild type TSHR, TSH 0.1 ng/mL [18]: 9.69 pmol/mL
Cyclic AMP produced, wild type TSHR, TSH 0.3 ng/mL [18]: 26.1 pmol/mL
Cyclic AMP produced, wild type TSHR, TSH 1 ng/mL [18]: 46.3 pmol/mL
Cyclic AMP produced, wild type TSHR, TSH 3 ng/mL [18]: 48.1 pmol/mL
Molecule: TSH (ligand)

Inhibition of binding (%) [19]: 49.8%
Inhibition of binding (%) [20]: 6.3%
Inhibition of binding (%) [21]: 38.7%
Inhibition of binding (%) [22]: -5.5%
Inhibition of binding (%) [23]: 2.8%
Inhibition of binding (%) [24]: 0.6%
Inhibition of binding (%) [25]: 6.3%
B1: 5C9 IgG (antibody, from another filing, V domains shown)
VH: EVQLVESGGGLIQPGGSLRLSCAASGFTVSSNYMSWVRQAPGKGLEWVSVTYSGGSTSYADSVKGRFTISRDNSKNTLYLQMNSLRAEDTAVYYCARGGRYCSSISCYARSGCDYWGQGTLVTVSS
VL: AIQMTQSPSSLSASVGDRVTITCRASQSISNYLNWYQQKPGKAPKLLIYAASSLQSGVPSRFSGSGSGTDFTLTISSLQPEDFATYYCQQSYSSPSTTFGQGTKLEIK

From patent US20110300138A1 (published 2011)
